Measured values as given in the domain aggregation screens of Martell et al. (2025).

assay: soluble fraction after stress (log2 fold change); higher = more stays soluble; pooled small domains, quantitative proteomics; details: stress: 75 degC
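Note: 20 min heating vs room temperature control held 20 min.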

Sequence | soluble fraction (log2)
HMLLNPFERLTERELEIADLYAKGYGNLEIANFLSIKQNTVSTYKKRIFEKLGIDNLVELIELIKNY | 0.265
HMLLQTRQRHEALAALGYFKGDVAAAWGPASEEALRAAQAAFGITVDGKWGPQTEDAIQGALQV | -0.357
HMLLREKLESVLPFISVSALAKTYFKRSPQWFYQRLNGSIVNGKPIRFNDAELKTLAGALTDIGKKISQAA | -0.285
HMLLSEPSVLKFNDDNSYEIVSGFLTEYKDKIVKIERRYKKATVKITVAGEEKEIKVSFVEDTE | -1.43
HMLLSTHVVVAKEDVQIGTRLQPAMLQVVDWPSASPLKNPLTSIEQATDRVVNMPLVKGEPISMSKLAAKG | -0.296
HMLLTASNYFKETKGINFSELPEALQKGHSFVIKSTENGTNWNAYSTSQNIQRVIDAYFSKLDEYLEKNQ | -0.578
HMLLTHEEQIVKRGWQAPVGPFAILDSRAEAMHGDLEMLRGDREAAEQHFRRAWQIIGPIVEQ | -0.0144
HMLMKILTDALEKMSPEELKELAEATGVKNTSSITPETMVGVFQAVFRVGGFKSYQLTLIIVNAVLKA | -0.148
HMLMRKAEVGVESLNLRHGPGTQYKVLEILPGGKSLHYLAEPRRGWVRVTTEEGTTGWTFLKFLKPE | -2.22
HMLNENNHGEWSIRMSNGLVVRLGRDELNRSLRRSIMAYAGLAPNYRSSIEYIDARYLGGVALKTF | -0.159
HMLNKRQAEILAEVSRLKEITPSELYKLQPNVSSRTLRRDMDVLVNKGLVSQDGSTKSTKYTYL | 0.193
HMLNMTLGDRIRSRREELRMSQEELATRLGYKSRSTIAKIESGENDLTQSKIVAFAEALSTTARWLLDY | -1.88
HMLNVNDVIARNVRAARERKKLTLDGAAELTGVSRSMLAQIEKGEVNPTISVVWKIANGFKVSFTSLVEPQ | -3.85
HMLPAGSDAILRYLSSGAVKGIGVATAARIVEKFGDETLRILEEEPGRLAEIKGITAAKAKAIGEAFAGQ | -0.356
HMLPELIVTTKKGVTVTVTNGVITYSATSNGKATFTVPNYGKWTVSATINGTVISKVVDVTEAKQIPVLLG | -1.07
HMLPERIQTIVALIGHGRAMDLVREFGGQEIKFPAQEGNDTWAALVEVIGEAATRKLAAVFGGGQAPPVYI | -1.17
HMLPGVPVVAGKTQSAATRILKAAGYAVSVVREEAFDGVTGTVLRTSPEAGSPLAPGSRVTLVVLQVV | -2.22
HMLPGWMETKFTANVSENTKNRTLEEHVLKMLNNKESAAEFIIFLHEKMMSVSGQVFQLDSR | -0.013
HMLPIGSSREQVISSLNKMHQDYKEEGNFIYAGYFKQGLPLVPSPRISIALQFNETAHLEKIDATLNYV | -0.343
HMLPKLAEEYAIMEIRGKGENLTAKLINKGGDSFMVRNGTVLQTGHRIDEITQTYVRAEINGMKDYLYFA | -0.645
HMLPLLAFDEKLNRLGYGGGFYDRTLASLAHKGNTITAIGIAYESQKMDKVPTGYFDRPLDGVLTPSGLIM | 0.0528
HMLPNLWVMGPGDHLWRVAEVAMTKHLGRPVANHEIDGYWRRLVALNRESLIDPDNPDLVFAGQVIELPPF | -2.59
HMLPQGKGTAMWLADHLAAASVTLDAGARKLLEDTLGEDMSRLPGVLRVLEATFGSDAGRLSAEDIEPFL | 0.075

Sequence | soluble fraction (log2)
HMLPRNKRIEIALTYIYGLGRHAATVVLKHANISPDKRTDDLDENDVRKLRDAIDANFRVEGDLRR | -1.55
HMLPTVSITGHIFIRSGSPLNRIFVGEKIYHVGDHIDRDWVIESIGIDTLTIRSGTLSTQLPL | -2.99
HMLPVFNYQVYRTHGLIYVYAKDNDSFDQIARSMGFKAKQLMKFNEVPEDFPLQAGDIVYLEKKKK | -2.35
HMLPVLEIGTMIRIIRQPHFGTIARVVALPEELTKVESETLVRILDAEFDDGTRVRIPRANVEVIE | -3.04
HMLPYGDRRRHTDNTISRIRELAAALDDSGIADRLNQDGYVTPEGKPFTYAGVRWIRYKYDISGPYERN | -1.91
HMLQKVELSDNEKFIFDSLQKEQKMALLRLKELVNLSNKAWDVSVKNLTKQGLVKVTKIDEELLIEI | -0.845
HMLQPQMKKFLNYESARNKMRPFGLSTRKEWRLFVDEGNRPADIPGDPYKKYKNKGWISWPHFLGK | -1.42
HMLRDTTLLHIDSIVRDGSTAMANITVRDEGTDLEFPLQLRMERGDMGWQVVRIVNYRAYLEAVQKA | -0.351
HMLRGKNALMSQLDQIQGIGPKRKRALFNHFLTLDAIKQADVETLRQAPGMNLPAAEQVYRHFHM | -0.2
HMLRIIDYNRVVKDLNGLTPEQLLEKLAESFTVEDKGTEEYRPTELHNFSMYLGGHWYSLTAKPGTYDDND | -1.2
HMLRMTRNRQKLVEVLMESGRPLSADEIREAAGFASTDLVTVYRNLEAFQSAGLLQRIPLENGSQLFELT | -0.46
HMLRNDEAVMLGRRLLNKHLQAFSVQIKDISHQRIHDLLDELELESLDHLLDDIGLGNRSVFLVAQKLLQ | -1.48
HMLRQRVFRIIQNNINSKNYFVYTKQILAELAGISMRSLNRTLSELQNDRLIIVDSGTIRLFT | -3.12
HMLRVGASVTANGKYWYDSYGSKPFGTANNLSTTVTRIVPGNPYPIHIGSYGWLQESQIQIT | -1.67
HMLSDADLAAFREVFDLVDKDKSGAIEMEEVEELTKLLGLDLTRDEVELLVREIDKDGNGEVDFEEFLLVM | 0.00598
HMLSDHGLNDRQIMVIAGLMNGGTVTVRSIESQYGVSLNTARADVKMLVDAGLLTETGREVNMKVYSWSGK | -2.05
HMLSDSDTLRDLYLSEQIWNVGDLIRVKGKNDDTHPSWEIIRRGTNYITAIDENYKSHKVWLHDIDI | -1.3
HMLSEKELLELLNRAKSNYNGITKKGIEAIALKYQGYSNVEIANLYHVKANHISAWISRARSRLKADY | 0.07
HMLSNLYAVLGVGRRATPDEITAAFDAWNARADAGEPIDDPLWERVRYAWDVLSSPSRRDLYDSLVDDATG | -1.74
HMLSSREEKILNYLNEHQIITRKKAQELLETSQSTAGRVLKIMVDNGLIVQYGGSRSIWYELIK | -1.79
HMLSTGIIIGDNVALRKTASSNGGIITRLDEGTVVKILASNVNAEWYQVEAGTKTGYVNRLYVNID | -1.07
HMLSTGQLIRYYRKRAGMTQAELAEEVEMSEPGIRNYELGNRTPSKAQLSAIARGLGIEPEALI | -0.63
HMLSVKEQTYQIIKEKILNQEYPAGARININELAEELGISNSPIREALSLLEQQGLVISNRSSGATVT | -0.176

Sequence | soluble fraction (log2)
HMLSVLKNVDVNSLSDDKIKTYWQQIQKSGYTLDEVEVLAEAQGISPLKIAAFKRRVQSLQQSLQT | 0.311
HMLSYDDTVVIGRNLLENAMKQKNIALEQLTDEVLARLAKELQVESVEAMYAGIGSGKRPSSFIINRLEAH | -0.75
HMLSYFKIIKNGLVREGPASYYKIAENLEIGTIVQAFEKHDDWYLIKTHSGRIGWIVASDVTPQV | -3.62
HMLTAHEAILKELRKMLLTGVLSPGEAVRPEIIGESFGVSAVPVREALRILEGEGQVLNRPHKGYVVT | -0.904
HMLTANPEEVVNRLTSAGEVGVRPLLDVDDPINAISTLLAIREDVYKQFAQFDTVGKSPSEIAHEIDDFL | 0.11
HMLTEERLQIITDTVNSRSSVTIAELSRILDVSPSTVKRDLNILAEAGKITKVRGGAIALGE | -0.285
HMLTGDVDRYKDFFIALEKTSPVPIGFEKIIGGAHGYYHLEDKRIAIDEGMSELQTLKTAIHEIAHAKLHD | -0.312
HMLTGNTAKLFAHLVEVMNPKEFVKINRQTVIVEAGIPRGSVGAAIAKLLETGHLIANASGAYKLT | 0.278
HMLTIEEYLTQLKKLMKDRDAATVRDALSDAEEHLRNAMAGEDPSRLDGIIEEYGSPEEIAAAYKIMEEHT | -0.082
HMLTIQNYFNQVKNIDWEQVPAALSKGHQLVEGASQNNWSAYHSNANIQRVVEAYFQKLNDYLEKN | -0.0425
HMLTKGDRQSIRDSIIYMVGNAPRTLDYIVAESRYSEEDVIEAVRSLLSSHILSIDDSDMISLTRK | -1.02
HMLTNNYKNDKALRFAKNHGIHESNILKLVSLYENAPEKGFNAQSIAELLGITPRSASRILVKLLQHNLIR | -1.8
HMLTPSRVLPYLFEDSFFIDTLSLEKDQVVGFLEYIDERLPPQDLMNKSKEFELIDYLINESEAYLSQ | -0.00122
HMLTQEEITRRRGEILTAAMGVILRKGFLETSMREIAEAAGVGKSTLYDYFPSKDEIMIAYVVD | -0.97
HMLTRYNVNYYYNGEILQRRKVAEGSAAERITYLSGSLEVTDWYTEADLLRKYDFTEPVTGDLNLYAFARI | -1.42
HMLTSAQLAEIRQAVRAGQASVVEDLLKNGASPNFRMENGDTGFTYAVRADTPQVAEALLKSGKL | -0.00532
HMLTTIRKATVNDKTRIMEIYAYARQFMAEHGNPNQWKNNNPSEETIDNDIAKQEMYVIETDGEVHAVFY | -1.64
HMLVDWNYLEGKRGVTTTPLTPSGKARFGDDVVNVLSDGVLVSTGTPVRVLQVLGNRVLVEPLDG | -0.21
HMLVGRDPQALILGSMPSEKSLEEDEYYAHPRNRFWSLMNWLLAGNKTRPAYKTGIEILSSHGIALWV | -0.358
HMLVIMKTGASEEEIGRVIERIEGEGLSAHVSRGTERTVIGVIGQGVDVHRIAGVLGGMSGVESLVPIS | 0.0604
HMLVLAENMDVIFTRRTLDDHVVVDYKTTIGEMVKNDEIKGENMDELISAVEKDGYELVSSTSGEIIFLND | -1.01
HMLVVEPSAELKTIIDKTASFVARNGPEFEARIKNEQNNAKFSFLQPNDPFNPYYRAKIVELGGTV | 0.0126
HMLVYQRLDKDNFIFEGKTLLNDIYKILDIESNYFEAIRGEADSIAGLLLEIAKSIPTINTEF | -0.362
